The binders below were run against T1, CD3 epsilon homodimer protein (UniProt P07766 23-126) (assay: SPR Biacore T200, CD3 epsilon homodimer on CM4 chip, antibody as analyte;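 also: Amine-coupled CD3 epsilon homodimer, run at 25 °C in HBS-EP+ buffer, ratio is bound amount of each single-residue H chain variant over that of the parent antibody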).
T1 construct: Immobilized on Sensor chip CM4 by amine coupling; construct not described; also called CD3 (CD3 epsilon)
T1 sequence (P07766 23-126): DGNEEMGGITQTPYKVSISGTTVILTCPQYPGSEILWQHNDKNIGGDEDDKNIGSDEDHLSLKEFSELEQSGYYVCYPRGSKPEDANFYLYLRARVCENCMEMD

Binder | ratio of amounts bound (Y/X vs CE115HA000)
CE115HA000 D101A one-arm antibody (antibody, human IgG1, kappa, L234A L235A, N297A, name in Kabat numbering, one-arm antibody (one Fab)) heavy: QVQLVESGGGVVQPGRSLRLSCAASGFTFSNAWMHWVRQAPGKGLEWVAQIKAKSNNYATYYAESVKGRFTISRDDSKNSLYLQMNSLKTEDTAVYYCRYVHYGAYYGVAAWGQGTTVTVSSASTKGPSVFPLAPSSKSTSGGTAALGCLVKDYFPEPVTVSWNSGALTSGVHTFPAVLQSSGLYSLSSVVTVPSSSLGTQTYICNVNHKPSNTKVDKKVEPKSCDKTHTCPPCPAPEAAGGPSVFLFPPKPKDTLMISRTPEVTCVVVDVSHEDPEVKFNWYVDGVEVHNAKTKPREEQYASTYRVVSVLTVLHQDWLNGKEYKCKVSNKALPAPIEKTISKAKGQPREPQVYTLPPSRCELTKNQVSLSCAVKGFYPSDIAVEWESNGQPENNYKTTPPVLDSDGSFFLVSKLTVDKSRWQQGNVFSCSVMHEALHNHYTQKSLSLSPDYKDDDDK EPKSSDKTHTCPPCPAPELLGGPSVFLFPPKPKDTLMISRTPEVTCVVVDVSHEDPEVKFNWYVDGVEVHNAKTKPREEQYNSTYRVVSVLTVLHQDWLNGKEYKCKVSNKALPAPIEKTISKAKGQPREPQVCTLPPSRDELTKNQVSLWCLVKGFYPSDIAVEWESNGQPENNYKTTPPVLDSDGSFFLYSKLTVDKSRWQQGNVFSCSVMHEALHNRYTQKSLSLSP light: DIVMTQSPLSLPVTPGEPASISCRSSQSLVHSNRNTYLHWYQQKPGQAPRLLIYKVSNRFSGVPDRFSGSGSGTDFTLKISRVEAEDVGVYYCGQGTQVPYTFGQGTKLEIKRTVAAPSVFIFPPSDEQLKSGTASVVCLLNNFYPREAKVQWKVDNALQSGNSQESVTEQDSKDSTYSLSSTLTLSKADYEKHKVYACEVTHQGLSSPVTKSFNRGEC | 1.26
CE115HA000 A56Q one-arm antibody (antibody, human IgG1, kappa, L234A L235A, N297A, name in Kabat numbering, one-arm antibody (one Fab)) heavy: QVQLVESGGGVVQPGRSLRLSCAASGFTFSNAWMHWVRQAPGKGLEWVAQIKAKSNNYQTYYAESVKGRFTISRDDSKNSLYLQMNSLKTEDTAVYYCRYVHYGAYYGVDAWGQGTTVTVSSASTKGPSVFPLAPSSKSTSGGTAALGCLVKDYFPEPVTVSWNSGALTSGVHTFPAVLQSSGLYSLSSVVTVPSSSLGTQTYICNVNHKPSNTKVDKKVEPKSCDKTHTCPPCPAPEAAGGPSVFLFPPKPKDTLMISRTPEVTCVVVDVSHEDPEVKFNWYVDGVEVHNAKTKPREEQYASTYRVVSVLTVLHQDWLNGKEYKCKVSNKALPAPIEKTISKAKGQPREPQVYTLPPSRCELTKNQVSLSCAVKGFYPSDIAVEWESNGQPENNYKTTPPVLDSDGSFFLVSKLTVDKSRWQQGNVFSCSVMHEALHNHYTQKSLSLSPDYKDDDDK EPKSSDKTHTCPPCPAPELLGGPSVFLFPPKPKDTLMISRTPEVTCVVVDVSHEDPEVKFNWYVDGVEVHNAKTKPREEQYNSTYRVVSVLTVLHQDWLNGKEYKCKVSNKALPAPIEKTISKAKGQPREPQVCTLPPSRDELTKNQVSLWCLVKGFYPSDIAVEWESNGQPENNYKTTPPVLDSDGSFFLYSKLTVDKSRWQQGNVFSCSVMHEALHNRYTQKSLSLSP light: DIVMTQSPLSLPVTPGEPASISCRSSQSLVHSNRNTYLHWYQQKPGQAPRLLIYKVSNRFSGVPDRFSGSGSGTDFTLKISRVEAEDVGVYYCGQGTQVPYTFGQGTKLEIKRTVAAPSVFIFPPSDEQLKSGTASVVCLLNNFYPREAKVQWKVDNALQSGNSQESVTEQDSKDSTYSLSSTLTLSKADYEKHKVYACEVTHQGLSSPVTKSFNRGEC | 0.76
CE115HA000 A56L one-arm antibody (antibody, human IgG1, kappa, L234A L235A, N297A, name in Kabat numbering, one-arm antibody (one Fab)) heavy: QVQLVESGGGVVQPGRSLRLSCAASGFTFSNAWMHWVRQAPGKGLEWVAQIKAKSNNYLTYYAESVKGRFTISRDDSKNSLYLQMNSLKTEDTAVYYCRYVHYGAYYGVDAWGQGTTVTVSSASTKGPSVFPLAPSSKSTSGGTAALGCLVKDYFPEPVTVSWNSGALTSGVHTFPAVLQSSGLYSLSSVVTVPSSSLGTQTYICNVNHKPSNTKVDKKVEPKSCDKTHTCPPCPAPEAAGGPSVFLFPPKPKDTLMISRTPEVTCVVVDVSHEDPEVKFNWYVDGVEVHNAKTKPREEQYASTYRVVSVLTVLHQDWLNGKEYKCKVSNKALPAPIEKTISKAKGQPREPQVYTLPPSRCELTKNQVSLSCAVKGFYPSDIAVEWESNGQPENNYKTTPPVLDSDGSFFLVSKLTVDKSRWQQGNVFSCSVMHEALHNHYTQKSLSLSPDYKDDDDK EPKSSDKTHTCPPCPAPELLGGPSVFLFPPKPKDTLMISRTPEVTCVVVDVSHEDPEVKFNWYVDGVEVHNAKTKPREEQYNSTYRVVSVLTVLHQDWLNGKEYKCKVSNKALPAPIEKTISKAKGQPREPQVCTLPPSRDELTKNQVSLWCLVKGFYPSDIAVEWESNGQPENNYKTTPPVLDSDGSFFLYSKLTVDKSRWQQGNVFSCSVMHEALHNRYTQKSLSLSP light: DIVMTQSPLSLPVTPGEPASISCRSSQSLVHSNRNTYLHWYQQKPGQAPRLLIYKVSNRFSGVPDRFSGSGSGTDFTLKISRVEAEDVGVYYCGQGTQVPYTFGQGTKLEIKRTVAAPSVFIFPPSDEQLKSGTASVVCLLNNFYPREAKVQWKVDNALQSGNSQESVTEQDSKDSTYSLSSTLTLSKADYEKHKVYACEVTHQGLSSPVTKSFNRGEC | 0.8
CE115HA000 A56N one-arm antibody (antibody, human IgG1, kappa, L234A L235A, N297A, name in Kabat numbering, one-arm antibody (one Fab)) heavy: QVQLVESGGGVVQPGRSLRLSCAASGFTFSNAWMHWVRQAPGKGLEWVAQIKAKSNNYNTYYAESVKGRFTISRDDSKNSLYLQMNSLKTEDTAVYYCRYVHYGAYYGVDAWGQGTTVTVSSASTKGPSVFPLAPSSKSTSGGTAALGCLVKDYFPEPVTVSWNSGALTSGVHTFPAVLQSSGLYSLSSVVTVPSSSLGTQTYICNVNHKPSNTKVDKKVEPKSCDKTHTCPPCPAPEAAGGPSVFLFPPKPKDTLMISRTPEVTCVVVDVSHEDPEVKFNWYVDGVEVHNAKTKPREEQYASTYRVVSVLTVLHQDWLNGKEYKCKVSNKALPAPIEKTISKAKGQPREPQVYTLPPSRCELTKNQVSLSCAVKGFYPSDIAVEWESNGQPENNYKTTPPVLDSDGSFFLVSKLTVDKSRWQQGNVFSCSVMHEALHNHYTQKSLSLSPDYKDDDDK EPKSSDKTHTCPPCPAPELLGGPSVFLFPPKPKDTLMISRTPEVTCVVVDVSHEDPEVKFNWYVDGVEVHNAKTKPREEQYNSTYRVVSVLTVLHQDWLNGKEYKCKVSNKALPAPIEKTISKAKGQPREPQVCTLPPSRDELTKNQVSLWCLVKGFYPSDIAVEWESNGQPENNYKTTPPVLDSDGSFFLYSKLTVDKSRWQQGNVFSCSVMHEALHNRYTQKSLSLSP light: DIVMTQSPLSLPVTPGEPASISCRSSQSLVHSNRNTYLHWYQQKPGQAPRLLIYKVSNRFSGVPDRFSGSGSGTDFTLKISRVEAEDVGVYYCGQGTQVPYTFGQGTKLEIKRTVAAPSVFIFPPSDEQLKSGTASVVCLLNNFYPREAKVQWKVDNALQSGNSQESVTEQDSKDSTYSLSSTLTLSKADYEKHKVYACEVTHQGLSSPVTKSFNRGEC | 0.87

Next, values leading:

ratio of amounts bound (Y/X vs CE115HA000) | Binder
0.66 | CE115HA000 A56Y one-arm antibody (antibody, human IgG1, kappa, L234A L235A, N297A, name in Kabat numbering, one-arm antibody (one Fab)) heavy: QVQLVESGGGVVQPGRSLRLSCAASGFTFSNAWMHWVRQAPGKGLEWVAQIKAKSNNYYTYYAESVKGRFTISRDDSKNSLYLQMNSLKTEDTAVYYCRYVHYGAYYGVDAWGQGTTVTVSSASTKGPSVFPLAPSSKSTSGGTAALGCLVKDYFPEPVTVSWNSGALTSGVHTFPAVLQSSGLYSLSSVVTVPSSSLGTQTYICNVNHKPSNTKVDKKVEPKSCDKTHTCPPCPAPEAAGGPSVFLFPPKPKDTLMISRTPEVTCVVVDVSHEDPEVKFNWYVDGVEVHNAKTKPREEQYASTYRVVSVLTVLHQDWLNGKEYKCKVSNKALPAPIEKTISKAKGQPREPQVYTLPPSRCELTKNQVSLSCAVKGFYPSDIAVEWESNGQPENNYKTTPPVLDSDGSFFLVSKLTVDKSRWQQGNVFSCSVMHEALHNHYTQKSLSLSPDYKDDDDK EPKSSDKTHTCPPCPAPELLGGPSVFLFPPKPKDTLMISRTPEVTCVVVDVSHEDPEVKFNWYVDGVEVHNAKTKPREEQYNSTYRVVSVLTVLHQDWLNGKEYKCKVSNKALPAPIEKTISKAKGQPREPQVCTLPPSRDELTKNQVSLWCLVKGFYPSDIAVEWESNGQPENNYKTTPPVLDSDGSFFLYSKLTVDKSRWQQGNVFSCSVMHEALHNRYTQKSLSLSP light: DIVMTQSPLSLPVTPGEPASISCRSSQSLVHSNRNTYLHWYQQKPGQAPRLLIYKVSNRFSGVPDRFSGSGSGTDFTLKISRVEAEDVGVYYCGQGTQVPYTFGQGTKLEIKRTVAAPSVFIFPPSDEQLKSGTASVVCLLNNFYPREAKVQWKVDNALQSGNSQESVTEQDSKDSTYSLSSTLTLSKADYEKHKVYACEVTHQGLSSPVTKSFNRGEC
0.28 | CE115HA000 A99D one-arm antibody (antibody, human IgG1, kappa, L234A L235A, N297A, name in Kabat numbering, one-arm antibody (one Fab)) heavy: QVQLVESGGGVVQPGRSLRLSCAASGFTFSNAWMHWVRQAPGKGLEWVAQIKAKSNNYATYYAESVKGRFTISRDDSKNSLYLQMNSLKTEDTAVYYCRYVHYGDYYGVDAWGQGTTVTVSSASTKGPSVFPLAPSSKSTSGGTAALGCLVKDYFPEPVTVSWNSGALTSGVHTFPAVLQSSGLYSLSSVVTVPSSSLGTQTYICNVNHKPSNTKVDKKVEPKSCDKTHTCPPCPAPEAAGGPSVFLFPPKPKDTLMISRTPEVTCVVVDVSHEDPEVKFNWYVDGVEVHNAKTKPREEQYASTYRVVSVLTVLHQDWLNGKEYKCKVSNKALPAPIEKTISKAKGQPREPQVYTLPPSRCELTKNQVSLSCAVKGFYPSDIAVEWESNGQPENNYKTTPPVLDSDGSFFLVSKLTVDKSRWQQGNVFSCSVMHEALHNHYTQKSLSLSPDYKDDDDK EPKSSDKTHTCPPCPAPELLGGPSVFLFPPKPKDTLMISRTPEVTCVVVDVSHEDPEVKFNWYVDGVEVHNAKTKPREEQYNSTYRVVSVLTVLHQDWLNGKEYKCKVSNKALPAPIEKTISKAKGQPREPQVCTLPPSRDELTKNQVSLWCLVKGFYPSDIAVEWESNGQPENNYKTTPPVLDSDGSFFLYSKLTVDKSRWQQGNVFSCSVMHEALHNRYTQKSLSLSP light: DIVMTQSPLSLPVTPGEPASISCRSSQSLVHSNRNTYLHWYQQKPGQAPRLLIYKVSNRFSGVPDRFSGSGSGTDFTLKISRVEAEDVGVYYCGQGTQVPYTFGQGTKLEIKRTVAAPSVFIFPPSDEQLKSGTASVVCLLNNFYPREAKVQWKVDNALQSGNSQESVTEQDSKDSTYSLSSTLTLSKADYEKHKVYACEVTHQGLSSPVTKSFNRGEC
